Data reported in publication PMC3706316, “Transcription Factor Ets1 Cooperates with Estrogen Receptor α to Stimulate Estradiol-Dependent Growth in Breast Cancer Cells and Tumors” (PLoS ONE, 2013).

T1: GST-Ets1 fusion protein (UniProt P14921 1-441)
T1 construct: Transcription factor Ets1 fused to GST; the only Ets1 cDNA it names is human ETS1 (pSG5-hEts1); also called purified GST-Ets1 fusion; source: recombinant fusion protein, prepared using glutathione-sepharose resin as previously described [40]; held on the resin
T1 sequence (looked up): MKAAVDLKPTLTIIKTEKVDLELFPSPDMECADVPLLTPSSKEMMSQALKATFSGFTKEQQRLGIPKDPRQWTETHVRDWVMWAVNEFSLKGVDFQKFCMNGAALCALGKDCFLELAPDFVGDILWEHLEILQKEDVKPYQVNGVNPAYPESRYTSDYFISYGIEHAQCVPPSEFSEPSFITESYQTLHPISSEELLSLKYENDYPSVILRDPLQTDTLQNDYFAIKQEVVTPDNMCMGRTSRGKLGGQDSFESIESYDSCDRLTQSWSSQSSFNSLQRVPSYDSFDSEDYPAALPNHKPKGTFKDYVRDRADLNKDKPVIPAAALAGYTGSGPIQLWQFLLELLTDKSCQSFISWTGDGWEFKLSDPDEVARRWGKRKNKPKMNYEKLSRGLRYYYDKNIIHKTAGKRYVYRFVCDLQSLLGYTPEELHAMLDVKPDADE


Target: T1, GST-Ets1 fusion protein
Assay: pull-down; GST or GST-Ets1 (4 µg/20 µL glutathione-sepharose resin) in 0.5 mL binding buffer (40 mM HEPES pH 7.5, 100 mM NaCl, 5 mM MgCl2, 0.1 mM EDTA, 0.05% Nonidet P-40, 1 mM DTT); GreenLys-labeled ERα (5 µL) 30 min at 4°C, labeled NCOA (5 µL) a further 2 h, alone or in combination; washed 3 times with 0.1% Triton X-100; SDS-PAGE, fluorescence imaging, percent of input bound
Conditions: one partner purified

Row | percent of labeled input bound [%] | Binder
1 | 10 | estrogen receptor α (ERα), GreenLys-labeled (receptor, human, UniProt P03372 1-595, looked up, Fluorotect GreenLys-labeled (fluorescent lysines built in during translation), also called hERα; fluorescently labeled ERα; source: in vitro translated (TNT coupled transcription-translation reticulocyte lysate, T7 polymerase) from pcDNA3.1 ERα) MTMTLHTKASGMALLHQIQGNELEPLNRPQLKIPLERPLGEVYLDSSKPAVYNYPEGAAYEFNAAAAANAQVYGQTGLPYGPGSEAAAFGSNGLGGFPPLNSVSPSPLMLLHPPPQLSPFLQPHGQQVPYYLENEPSGYTVREAGPPAFYRPNSDNRRQGGRERLASTNDKGSMAMESAKETRYCAVCNDYASGYHYGVWSCEGCKAFFKRSIQGHNDYMCPATNQCTIDKNRRKSCQACRLRKCYEVGMMKGGIRKDRRGGRMLKHKRQRDDGEGRGEVGSAGDMRAANLWPSPLMIKRSKKNSLALSLTADQMVSALLDAEPPILYSEYDPTRPFSEASMMGLLTNLADRELVHMINWAKRVPGFVDLTLHDQVHLLECAWLEILMIGLVWRSMEHPGKLLFAPNLLLDRNQGKCVEGMVEIFDMLLATSSRFRMMNLQGEEFVCLKSIILLNSGVYTFLSSTLKSLEEKDHIHRVLDKITDTLIHLMAKAGLTLQQQHQRLAQLLLILSHIRHMSNKGMEHLYSMKCKNVVPLYDLLLEMLDAHRLHAPTSRGGASVEETDQSHLATAGSTSSHSLQKYYITGEAEGFPATV
2 | 26 | nuclear receptor coactivator NCOA3 (AIB/SRC3), GreenLys-labeled (natural protein, Fluorotect GreenLys-labeled (fluorescent lysines built in during translation), plasmid PCR3.1 SRC3/NCOA3 from O'Malley and Smith; source: in vitro translated (TNT coupled transcription-translation reticulocyte lysate, T7 polymerase) from PCR3.1 SRC3/NCOA3) not shown
3 | 9 | nuclear receptor coactivator NCOA2 (SRC2), GreenLys-labeled (natural protein, Fluorotect GreenLys-labeled (fluorescent lysines built in during translation), plasmid PCR3.1 SRC2/NCOA2 from O'Malley and Smith; source: in vitro translated (TNT coupled transcription-translation reticulocyte lysate, T7 polymerase) from PCR3.1 SRC2/NCOA2) not shown
4 | 27 | nuclear receptor coactivator NCOA1 (SRC1), GreenLys-labeled (natural protein, Fluorotect GreenLys-labeled (fluorescent lysines built in during translation), plasmid PCR3.1 SRC1/NCOA1 from O'Malley and Smith; source: in vitro translated (TNT coupled transcription-translation reticulocyte lysate, T7 polymerase) from PCR3.1 SRC1/NCOA1) not shown
